This passage reports Kd results from patent US20210292422A1 (published 2021).

Assay in all cases: BLI (Octet)
Test [1] addresses T1, LRP6E3E4 (UniProt O75581 631-1246).
T1 chain: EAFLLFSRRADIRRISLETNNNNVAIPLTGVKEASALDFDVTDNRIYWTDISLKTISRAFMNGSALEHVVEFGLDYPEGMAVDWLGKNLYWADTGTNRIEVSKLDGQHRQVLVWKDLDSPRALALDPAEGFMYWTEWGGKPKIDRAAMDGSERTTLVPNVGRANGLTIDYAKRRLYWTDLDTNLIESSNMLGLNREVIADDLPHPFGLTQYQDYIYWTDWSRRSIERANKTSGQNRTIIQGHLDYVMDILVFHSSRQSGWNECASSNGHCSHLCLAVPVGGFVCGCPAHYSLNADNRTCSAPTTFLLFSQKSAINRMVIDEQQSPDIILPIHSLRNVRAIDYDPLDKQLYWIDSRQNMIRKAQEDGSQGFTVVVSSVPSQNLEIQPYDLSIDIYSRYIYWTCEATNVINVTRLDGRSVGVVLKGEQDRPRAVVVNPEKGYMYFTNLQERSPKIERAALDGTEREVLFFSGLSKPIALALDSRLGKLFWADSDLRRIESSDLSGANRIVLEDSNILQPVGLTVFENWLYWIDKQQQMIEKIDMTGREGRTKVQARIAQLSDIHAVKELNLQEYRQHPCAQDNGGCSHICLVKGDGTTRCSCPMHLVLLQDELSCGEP

Test [2] addresses Frizzled 1 (Fzd1) (UniProt Q9UP38 111-230).
For test [3], the target named is T2, LRP6E1E2 (UniProt O75581 20-630).
T2 chain: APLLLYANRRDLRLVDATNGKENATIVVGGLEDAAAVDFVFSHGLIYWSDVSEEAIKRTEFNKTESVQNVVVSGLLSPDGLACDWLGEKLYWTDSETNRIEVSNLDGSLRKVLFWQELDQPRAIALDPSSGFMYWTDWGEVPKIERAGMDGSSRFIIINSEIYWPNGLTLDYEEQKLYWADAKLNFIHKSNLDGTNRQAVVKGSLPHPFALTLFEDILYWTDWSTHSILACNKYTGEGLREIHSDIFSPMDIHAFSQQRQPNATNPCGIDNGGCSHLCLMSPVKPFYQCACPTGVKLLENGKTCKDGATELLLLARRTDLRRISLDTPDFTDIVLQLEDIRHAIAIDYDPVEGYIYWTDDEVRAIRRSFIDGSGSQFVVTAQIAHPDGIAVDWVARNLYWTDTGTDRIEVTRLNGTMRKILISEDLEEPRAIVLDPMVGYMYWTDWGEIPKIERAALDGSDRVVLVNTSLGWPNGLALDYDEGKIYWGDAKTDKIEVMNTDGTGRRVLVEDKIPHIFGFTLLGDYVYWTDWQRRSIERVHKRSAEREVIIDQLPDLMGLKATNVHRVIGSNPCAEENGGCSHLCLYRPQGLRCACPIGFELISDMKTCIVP

B1: αGFP:5:L2:Fc (bispecific antibody)
chain: QVQLVESGGGLVQPGGSLRLSCAASGFTFSRYGMHWVRQAPGKGLEWVSGISSIGSNTYYADSVKGRFTISRDNSKNTLYLQMNSLRAEDTAVYYCARWYKTYIDVWGQGTLVTVSSGGGGSGGGGSGGGGSDIELTQPPSVSVAPGQTARISCSGDNLGKKYVYWYQQKPGQAPVLVIYGDDERPSGIPERFSGSNSGNTATLTISGTQAEDEADYYCASYDSSHILIVFGGGTKLTVLGSGSGEVQLVESGGGLVQPGGSLRLSCAASGFTFTSYYISWVRQAPGKGLEWVAEISPYSGSTYYADSVKGRFTISADTSKNTAYLQMNSLRAEDTAVYYCALRARPPIRLHPRGSVMDYWGQGTLVTVSSGSAASGSSGGSSSGADIQMTQSPSSLSASVGDRVTITCRASQDVSTAVAWYQQKPGKAPKLLIYSASFLYSGVPSRFSGSGSGTDFTLTISSLQPEDFATYYCQQSYTTPPTFGQGTKVEIKGSGSGDKTHTCPPCPAPEAAGGPSVFLFPPKPKDTLMISRTPEVTCVVVDVSHEDPEVKFNWYVDGVEVHNAKTKPREEQYNSTYRVVSVLTVLHQDWLNGKEYKCKVSNKALGAPIEKTISKAKGQPREPQVYTLPPSREEMTKNQVSLTCLVKGFYPSDIAVEWESNGQPENNYKTTPPVLDSDGSFFLYSKLTVDKSRWQQGNVFSCSVMHEALHNHYTQKSLSLSPGK
In test [1], B1 showed a Kd of 800 pM.

B2: αGFP:5:F1:Fc (bispecific antibody)
chain: QVQLVESGGGLVQPGGSLRLSCAASGFTFSRYGMHWVRQAPGKGLEWVSGISSIGSNTYYADSVKGRFTISRDNSKNTLYLQMNSLRAEDTAVYYCARWYKTYIDVWGQGTLVTVSSGGGGSGGGGSGGGGSDIELTQPPSVSVAPGQTARISCSGDNLGKKYVYWYQQKPGQAPVLVIYGDDERPSGIPERFSGSNSGNTATLTISGTQAEDEADYYCASYDSSHILIVFGGGTKLTVLGSGSGEVQLVESGGGLVQPGGSLRLSCAASGFTFSHYTLSWVRQAPGKGLEWVSVISGDGSYTYYADSVKGRFTISSDNSKNTLYLQMNSLRAEDTAVYYCARNFIKYVFANWGQGTLVTVSSGGGGSGGGGSGGGGSDIELTQPPSVSVAPGQTARISCSGDNIGSFYVHWYQQKPGQAPVLVIYDKSNRPSGIPERFSGSNSGNTATLTISGTQAEDEADYYCQSYANTLSLVFGGGTKLTVLGSGSGDKTHTCPPCPAPEAAGGPSVFLFPPKPKDTLMISRTPEVTCVVVDVSHEDPEVKFNWYVDGVEVHNAKTKPREEQYNSTYRVVSVLTVLHQDWLNGKEYKCKVSNKALGAPIEKTISKAKGQPREPQVYTLPPSREEMTKNQVSLTCLVKGFYPSDIAVEWESNGQPENNYKTTPPVLDSDGSFFLYSKLTVDKSRWQQGNVFSCSVMHEALHNHYTQKSLSLSPGK
In the case of B2, the affinity in test [2], expressed as Kd, was 2500 pM.

B3: F1:5:αGFP:Fc (bispecific antibody)
chain: EVQLVESGGGLVQPGGSLRLSCAASGFTFSHYTLSWVRQAPGKGLEWVSVISGDGSYTYYADSVKGRFTISSDNSKNTLYLQMNSLRAEDTAVYYCARNFIKYVFANWGQGTLVTVSSGGGGSGGGGSGGGGSDIELTQPPSVSVAPGQTARISCSGDNIGSFYVHWYQQKPGQAPVLVIYDKSNRPSGIPERFSGSNSGNTATLTISGTQAEDEADYYCQSYANTLSLVFGGGTKLTVLGSGSGQVQLVESGGGLVQPGGSLRLSCAASGFTFSRYGMHWVRQAPGKGLEWVSGISSIGSNTYYADSVKGRFTISRDNSKNTLYLQMNSLRAEDTAVYYCARWYKTYIDVWGQGTLVTVSSGGGGSGGGGSGGGGSDIELTQPPSVSVAPGQTARISCSGDNLGKKYVYWYQQKPGQAPVLVIYGDDERPSGIPERFSGSNSGNTATLTISGTQAEDEADYYCASYDSSHILIVFGGGTKLTVLGSGSGDKTHTCPPCPAPEAAGGPSVFLFPPKPKDTLMISRTPEVTCVVVDVSHEDPEVKFNWYVDGVEVHNAKTKPREEQYNSTYRVVSVLTVLHQDWLNGKEYKCKVSNKALGAPIEKTISKAKGQPREPQVYTLPPSREEMTKNQVSLTCLVKGFYPSDIAVEWESNGQPENNYKTTPPVLDSDGSFFLYSKLTVDKSRWQQGNVFSCSVMHEALHNHYTQKSLSLSPGK
Take B3: in test [2], binding was put at a Kd of 200 pM.

B4: L2:5:αGFP:Fc (bispecific antibody)
chain: EVQLVESGGGLVQPGGSLRLSCAASGFTFTSYYISWVRQAPGKGLEWVAEISPYSGSTYYADSVKGRFTISADTSKNTAYLQMNSLRAEDTAVYYCALRARPPIRLHPRGSVMDYWGQGTLVTVSSGSAASGSSGGSSSGADIQMTQSPSSLSASVGDRVTITCRASQDVSTAVAWYQQKPGKAPKLLIYSASFLYSGVPSRFSGSGSGTDFTLTISSLQPEDFATYYCQQSYTTPPTFGQGTKVEIKGSGSGQVQLVESGGGLVQPGGSLRLSCAASGFTFSRYGMHWVRQAPGKGLEWVSGISSIGSNTYYADSVKGRFTISRDNSKNTLYLQMNSLRAEDTAVYYCARWYKTYIDVWGQGTLVTVSSGGGGSGGGGSGGGGSDIELTQPPSVSVAPGQTARISCSGDNLGKKYVYWYQQKPGQAPVLVIYGDDERPSGIPERFSGSNSGNTATLTISGTQAEDEADYYCASYDSSHILIVFGGGTKLTVLGSGSGDKTHTCPPCPAPEAAGGPSVFLFPPKPKDTLMISRTPEVTCVVVDVSHEDPEVKFNWYVDGVEVHNAKTKPREEQYNSTYRVVSVLTVLHQDWLNGKEYKCKVSNKALGAPIEKTISKAKGQPREPQVYTLPPSREEMTKNQVSLTCLVKGFYPSDIAVEWESNGQPENNYKTTPPVLDSDGSFFLYSKLTVDKSRWQQGNVFSCSVMHEALHNHYTQKSLSLSPGK
For the molecule B4, binding in test [1] was characterised by a dissociation constant (Kd) of 500 pM.

B5: L1:5:αGFP:Fc (bispecific antibody)
chain: DVKLVESGGGLVKLGGSLRLSCAASGFSFSTSYMSWVRQTPEKRLELVAAINLNGGSTYYSDTVKGRFTISRDNAKNTLYLQMSSLKSEDTAFYYCASELAGYGTPFAYWGQGTLVTVSAGSAASGSSGGSSSGADIVLTQSPATLSVTPGDSVSLSCKASQSISYNLHWYQQKSHESPRLLIKYTSQSISGIPSRFSGSGSGTDFTLTINNVETEDFGMYFCQQSNSWPLTFGAGTKLEVKGSGSGQVQLVESGGGLVQPGGSLRLSCAASGFTFSRYGMHWVRQAPGKGLEWVSGISSIGSNTYYADSVKGRFTISRDNSKNTLYLQMNSLRAEDTAVYYCARWYKTYIDVWGQGTLVTVSSGGGGSGGGGSGGGGSDIELTQPPSVSVAPGQTARISCSGDNLGKKYVYWYQQKPGQAPVLVIYGDDERPSGIPERFSGSNSGNTATLTISGTQAEDEADYYCASYDSSHILIVFGGGTKLTVLGSGSGDKTHTCPPCPAPEAAGGPSVFLFPPKPKDTLMISRTPEVTCVVVDVSHEDPEVKFNWYVDGVEVHNAKTKPREEQYNSTYRVVSVLTVLHQDWLNGKEYKCKVSNKALGAPIEKTISKAKGQPREPQVYTLPPSREEMTKNQVSLTCLVKGFYPSDIAVEWESNGQPENNYKTTPPVLDSDGSFFLYSKLTVDKSRWQQGNVFSCSVMHEALHNHYTQKSLSLSPGK
In the case of B5, binding in test [3] was characterised by a dissociation constant (Kd) of 16000 pM.

Usually Kd stands for a measure of binding affinity in units of concentration. High values mean lower affinity, low ones higher affinity.
